This experiment concerns the target Cys-OmpX labelled with Alexa Fluor 488 (E. coli) (UniProt P0A917). As to the kind of experiment: MST.

In general, Kd refers to the constant that tells how readily two partners part at equilibrium. Higher therefore signals a looser complex. “E. coli SurA wild type (mature, tag cleaved) (from UniProt P0ABZ6 21-428) (natural protein)”: the Kd was found to be 800 nM.

The record behind these values is article doi:10.1101/2019.12.19.882696.
